# Several values for one entry are separate records, joined by “and”; a condition that tells them apart may be missing. Equal entries are not always repeated. Where two headings read alike, the source gives them in different places.
# What was measured:
# [1] = molecular target: full length human G208C NFU1 (human) (UniProt Q9UMS0); test: AUC
# [2] = molecular target: full length human G208C NFU1 (human) (UniProt Q9UMS0); test: AUC; remark: listed apart in the source
substance,measurement,setting,value
full length human G208C NFU1 (from UniProt Q9UMS0 10-254) (natural protein),percent dimer (holo protein),[1],65.6%
same,stoichiometry N,[1],2 and 4
same,percent dimer (with 1 mM TCEP),[2],60%
same,percent dimer (without TCEP),[2],58%
same,percent higher order oligomer (with 1 mM TCEP),[2],1.5%
same,percent higher order oligomer (without TCEP),[2],6%
same,percent monomer (with 1 mM TCEP),[2],30%
same,percent monomer (without TCEP),[2],29%
same,stoichiometry N,[2],2

# Source: article PMC5466808
